Measurements from US5763245A, “Method of controlling insects” (priority 1996, dated 1998).

Legend:
[1] = 3-Hydroxysteroid oxidase assay (spectrophotometric); assay type: biochemical
Procedure: The identity of the enzyme was confirmed by testing its ability to oxidize a 3-hydroxysteroid, specifically cholesterol. The enzyme is added to a reagent mixture comprising horseradish peroxidase (20 U/mL), phenol (14 mM), 4-amino antipyrine (0.82 mM), Triton® X-100 (0.05%) and phosphate buffer (100 mM, pH 7). The sterol in isopropanol is then added and the absorbance at 500 nm monitored. One unit of activity is defined as the amount of enzyme required to oxidize 1 &mole of sterol per minute at 20% C.
The activity levels of the enzymes are reported in Table 12 for 3-hydroxysteroids representative of various classes of 3-hydroxysteroids.

[2] = system: boll weevil larvae; experiment: Boll weevil larvae bioassay (diet incorporation); assay type: in vivo
Procedure: Assays for activity against boll weevil larvae are carried out by incorporating the test sample into a agar liquid diet similar to that for southern corn rootworm [Marrone et al., 1985]. The test sample is substituted for the 20% water component. Neonate larvae are allowed to feed on the diet and mortality and growth stunting are evaluated.
Protein concentrations were determined spectrophotometrically with BCA protein reagent [Smith et al., 1985].

[3] = system: tobacco budworm larvae; experiment: Extended test with tobacco budworm larvae; assay type: in vivo; details: 100 ppm in artificial diet
Procedure: An extended test was performed with tobacco budworm larvae to test the effect of the stunting noted in the six-day test. Tobacco budworm eggs were added to artificial diet (as described above) containing either buffer or 100 ppm A19249 3-hydroxysteroid oxidase (cholesterol oxidase). After seven days, some mortality as compared to the controls was noted. Surviving larvae were moved to fresh diet (control or treated, as appropriate). Percent mortality (corrected for control mortality) is reported for the 7 day and 10 day periods in Table 2A. The corrected number of larvae was […]

[4] = system: tobacco budworm; experiment: Lepidopteran larvae bioassay on treated artificial diet, six days; assay type: in vivo
Procedure: (§1) Lepidopteran larvae were tested on artificial diet treated with the indicated amount of the A19249 3-hydroxysteroid oxidase (cholesterol oxidase) for six days.

[5] = system: tobacco hornworm; experiment: as above; assay type: in vivo; details: stage lv
Procedure: as §1

[6] = system: pink bollworm; experiment: as above; assay type: in vivo; details: stage lv
Procedure: as §1

[7] = system: beet armyworm; experiment: as above; assay type: in vivo; details: stage lv, dose 100 μg/mL
Procedure: as §1

[8] = system: black cutworm; experiment: as above; assay type: in vivo; details: stage lv, dose 100 μg/mL
Procedure: as §1

[9] = system: fall army worm; experiment: as above; assay type: in vivo; details: stage lv, dose 30 μg/mL
Procedure: as §1

[10] = system: corn earworm; experiment: as above; assay type: in vivo; details: stage lv
Procedure: as §1

[11] = system: European cornborer; experiment: as above; assay type: in vivo; details: stage lv
Procedure: as §1

B1: A19249: 3-hydroxysteroid oxidase produced by streptomycete A19249 collected in Madagascar; 52.5 kDa, SEQ ID NO: 8 (protein)
chain: VNAHQPLSRRRMLGLAALGAAALTGQTTITAAPRAAAATAPGGSGGTFVPAVVIGTGYGAAVSALRLGEAGVSTLMLEMGQLWNQPGPDGNVFCGMLKPDKRSSWFKTRTEAPLGSFLWLDLANRDIDPYAGVLDRVNFDQMSVYVGRGVGGGSLVNGGMAVTPRRSYFQEVLPQVDADEMYGTYFPRANSGLRVNNIDKDWFEQTEWYTFARVARLQAENAGLKTTFVPNVYDWDYMRGEADGTNPKSALAAEVIYGNNHGKVSLDKSYLAAALGTGKVTVETLHQVKTIRQQNDGTYLLTVEQKDPDGKLLGTKEISCRHLFLGAGSLGSIELLLRARETGTLPGLSSEIGGGWGPNGNIMTARANHVWNPTGSKQSSIPALGIDDWDNPDNPVFAEIAPMPAGLETWVSLYLAITKNPERGTFVYDAAKDRADLRWTRDQNAPAVAAAKSLFDRVNKANTTIYRYDLFGKQIKAFADDFCYHPLGGCVLGKATDNYGRVSGYKNLYVTDGSLIPGSIGVNPFVTITALAERNVERVIKEDIAGS
Relative Rate ([1]; sterol: 20-OH ecdysone): < 1 | Relative Rate ([1]; sterol: campesterol*): 65 | Relative Rate ([1]; sterol: cholesterol): 100 | Relative Rate ([1]; sterol: dehydrocholesterol): 13 | Relative Rate ([1]; sterol: dihydrocholesterol): 56 | Relative Rate ([1]; sterol: ecdysone): < 1 | Relative Rate ([1]; sterol: fucosterol): 22 | Relative Rate ([1]; sterol: lanosterol): < 1 | Relative Rate ([1]; sterol: lathosterol): 28 | Relative Rate ([1]; sterol: sitosterol): 88 | Relative Rate ([1]; sterol: stigmasterol): 22 | BollWeevil % Mortality ([2]; 5 μg/mL, 175 mUnits per mL): 10% | Survivor Stunting ([2]; 5 μg/mL, 175 mUnits per mL): Slight | BollWeevil % Mortality ([2]; 10 μg/mL, 350 mUnits per mL): 10% | Survivor Stunting ([2]; 10 μg/mL, 350 mUnits per mL): Moderate | BollWeevil % Mortality ([2]; 15 μg/mL, 525 mUnits per mL): 5% | Survivor Stunting ([2]; 15 μg/mL, 525 mUnits per mL): Moderate | BollWeevil % Mortality ([2]; 20 μg/mL, 700 mUnits per mL): 15% | Survivor Stunting ([2]; 20 μg/mL, 700 mUnits per mL): Severe | BollWeevil % Mortality ([2]; 40 μg/mL, 1400 mUnits per mL): 70% | Survivor Stunting ([2]; 40 μg/mL, 1400 mUnits per mL): Severe | BollWeevil % Mortality ([2]; 60 μg/mL, 2100 mUnits per mL): 60% | Survivor Stunting ([2]; 60 μg/mL, 2100 mUnits per mL): Severe | Percent Mortality (corrected for control mortality) ([3]; interval 7 days): 20% | Percent Mortality (corrected for control mortality) ([3]; interval 10 days): 61% | Percent Mortality (corrected for control mortality) ([3]; interval 14 days): 80% | Stunting ([4]; stage egg/lv, dose 30 μg/mL): 0 | Stunting ([4]; stage lv, dose 100 μg/mL): 86% | Stunting ([5]; dose 30 μg/mL): 0 | Stunting ([5]; dose 100 μg/mL): 30% | Stunting ([6]; dose 50 μg/mL): 0 | Stunting ([6]; dose 100 μg/mL): 30% | Stunting [7]: 76% | Stunting [8]: 68% | Stunting [9]: 0 | Stunting ([10]; dose 50 μg/mL): 0 | Stunting ([10]; dose 100 μg/mL): 35% | Stunting ([11]; dose 50 μg/mL): 0 | Stunting ([11]; dose 100 μg/mL): 46%
